Test results as given in patent publication US20170044260A1 (Innovent, published 2017).

Experiments:
[1] = target: cynoPD-1_Fc (cyno) (UniProt B0LAJ3); experiment: bio-layer interferometry (ForteBio), monovalent: Fab in solution, cynoPD-1_Fc on sensor tip
[2] = target: T1, human PD-1 on cells (human, UniProt Q15116 25-288); experiment: flow cytometry blocking: CHO cells with human PD-1, 100 nM antibody, then PD-L2-FITC (competitor); remaining PD-L2-FITC signal
[3] = target: cynoPD-1_Fc (cyno, UniProt B0LAJ3 25-170); experiment: bio-layer interferometry (ForteBio), monovalent: Fab in solution, cynoPD-1_Fc on sensor tip
cynoPD-1_Fc, sequence (B0LAJ3 entry or part of it limits assumed): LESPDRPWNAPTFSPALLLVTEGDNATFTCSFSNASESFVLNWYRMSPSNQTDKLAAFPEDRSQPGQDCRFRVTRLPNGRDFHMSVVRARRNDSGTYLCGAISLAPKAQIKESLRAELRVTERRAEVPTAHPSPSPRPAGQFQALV

[4] = target: T1, human PD-1 on cells; experiment: cell-based or functional assay
[5] = target: T1, human PD-1 on cells; experiment: cell-based or functional assay; remark: listed apart in the source
[6] = target: T1, human PD-1 on cells; experiment: flow cytometry on CHO cells with human PD-1, PE-labelled secondary antibody
Protocol: Cells are then washed 3×, and are incubated with a secondary antibody (PE-labelled, at final concentration of 5 μg/ml) in PBS 1% BSA for 30 min on ice (protected from light). Cells are washed 3× and analyzed via flow cytometry. Flow cytometry is performed on an Accuri C6 system (BD Biosciences) and MFIs are calculated on the C6 software. EC50s are calculated on Graphpad software.

[7] = target: T2, b-PD-1 monomer (human, UniProt Q15116 25-167, limits assumed, biotinylated (b-); site not stated); experiment: MSD solution equilibrium titration, monovalent KD against human PD-1; monovalent KD, IgG1 format
T2 construct: also called human PD-1; antigen of the MSD assay
T2 sequence (Q15116 25-167 limits assumed): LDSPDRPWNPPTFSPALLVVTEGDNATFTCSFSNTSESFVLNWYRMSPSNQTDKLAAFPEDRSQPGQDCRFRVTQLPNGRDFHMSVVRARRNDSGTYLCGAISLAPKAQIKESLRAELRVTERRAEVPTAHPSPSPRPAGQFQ
Protocol: (§1) Equilibrium affinity measurements are performed as previously described (Estep, P., et al., MAbs, 2013. 5(2): p. 270-8). […] Antibodies diluted at 20 nM in PBS are coated onto standard bind MSD-ECL plates overnight at 4° C. or at room temperature for 30 min. Plates are blocked with BSA for 30 min whilst shaking at 700 rpm. Plates are then washed 3× with wash buffer (PBSF+0.05% Tween 20). SET samples are applied and incubated on the plates for 150 s with shaking at 700 rpm followed by one wash. Antigen captured on a plate is detected with 250 ng/mL sulfotag-labeled streptavidin in PBSF by incubation on the plate for 3 min. The plates are washed three times with wash buffer and are then read on the MSD Sector Imager 2400 instrument using 1× Read Buffer T with surfactant. The percent free antigen is plotted as a function of titrated antibody in Prism and fit to a quadratic equation to extract the KD. To improve throughput, liquid handling robots are used throughout MSD-SET experiments, including for SET sample preparation.

[8] = target: T3, human PD-1 (antigen of the avid KD measurement by MSD) (human, UniProt Q15116 25-167, limits assumed); experiment: MSD solution equilibrium titration, avid KD against human PD-1; avid KD, IgG1 format
T3 sequence (Q15116 25-167 limits assumed): as above
Protocol: as §1

[9] = target: T4, hPD-1_HIS (human, UniProt Q15116 25-167, limits assumed); experiment: bio-layer interferometry, antibody on the sensor tip; reference nivolumab and pembrolizumab
T4 construct: not shown: His tag
T4 sequence (Q15116 25-167 limits assumed): as above

[10] = target: T4, hPD-1_HIS; experiment: bio-layer interferometry (ForteBio), monovalent: hPD-1_HIS in solution, IgG on sensor tip
Protocol: Briefly, ForteBio affinity measurements are performed by loading IgGs online onto AHQ sensors. Sensors are equilibrated off-line in assay buffer for 30 min and then monitored on-line for 60 seconds for baseline establishment. Sensors with loaded IgGs are exposed to 100 nM antigen for 5 min, afterwards they are transferred to assay buffer for 5 min for off-rate measurement. Kinetics are analyzed using the 1:1 binding model.

[11] = target: T5, hPD-1_Fc (human, UniProt Q15116 25-167, limits assumed); experiment: bio-layer interferometry (ForteBio), monovalent: Fab in solution, hPD-1_Fc on sensor tip
T5 construct: also called human PD-1_Fc; not shown: Fc part
T5 sequence (Q15116 25-167 limits assumed): as above

[12] = target: T5, hPD-1_Fc; experiment: bio-layer interferometry, PD-1_Fc on the sensor tip; reference nivolumab and pembrolizumab
[13] = target: T2, b-PD-1 monomer; experiment: MSD solution equilibrium titration, monovalent KD against human PD-1
Protocol: as §1

[14] = target: T3, human PD-1 (antigen of the avid KD …); experiment: MSD solution equilibrium titration, avid KD against human PD-1
Protocol: as §1

[15] = target: T6, human PD-1-Fc (R&D Systems) (human, UniProt Q15116 25-167); experiment: SPR (Biacore T200), human PD-1-Fc immobilized, antibody stored 4 weeks at 4° C. as analyte, 37° C.
T6 construct: not shown: Fc part of the bought fusion protein; not described
T6 sequence (Q15116 25-167 limits assumed): as above
Protocol: (§2) All sample analytes are run in 3-fold series dilutions from their starting concentration (90 nM), 8 total dilutions with one duplicate at a middle concentration and a zero. The analysis is performed at 37° C. The contact time for each sample is 180 sec at 30 μl/min. The dissociation time: 300 seconds for 5 lower concentrations and 1200 (Fab), or 2400 (T=0) or 3000 (4 weeks 4° C., 25° C., 40° C.) seconds for 3 higher concentrations. The immobilized surface is regenerated for 6-8 seconds with 0.4% SDS at 30 ul/min, and then stabilized for 5 seconds. Binding kinetics are analyzed using the Biacore T200 Evaluation software (Version 3.0). Data are referenced to a blank flow cell, and the data are fit to a 1:1 binding model.

[16] = target: T6, human PD-1-Fc (R&D Systems); experiment: SPR (Biacore T200), human PD-1-Fc immobilized, antibody stored 4 weeks at 25° C. as analyte, 37° C.
Protocol: as §2

[17] = target: T7, biotinylated PD-1-Fc fusion protein (human, UniProt Q15116 25-170, limits assumed, biotinylated; site not stated); experiment: ELISA blocking: antibody mixed with biotinylated PD-1-Fc, plate coated with PD-L2-Fc (competitor)
T7 construct: also called human PD-1; not shown: Fc part; not described
T7 sequence (Q15116 25-170 limits assumed): as the sequence (B0LAJ3 entry or part of it limits assumed) above, with E2D, A10P, L19V, A35T, R75Q, A144T counted along it

[18] = target: T6, human PD-1-Fc (R&D Systems); experiment: SPR (Biacore T200), human PD-1-Fc immobilized, antibody stored 4 weeks at 40° C. as analyte, 37° C.
Protocol: as §2

[19] = target: T7, biotinylated PD-1-Fc fusion protein; experiment: ELISA blocking: antibody mixed with biotinylated PD-1-Fc, plate coated with PD-L1-Fc (competitor)
[20] = target: T6, human PD-1-Fc (R&D Systems); experiment: SPR (Biacore T200), human PD-1-Fc immobilized, antibody as analyte, 37° C.
Protocol: as §2

T1 sequence (Q15116 25-288 limits assumed): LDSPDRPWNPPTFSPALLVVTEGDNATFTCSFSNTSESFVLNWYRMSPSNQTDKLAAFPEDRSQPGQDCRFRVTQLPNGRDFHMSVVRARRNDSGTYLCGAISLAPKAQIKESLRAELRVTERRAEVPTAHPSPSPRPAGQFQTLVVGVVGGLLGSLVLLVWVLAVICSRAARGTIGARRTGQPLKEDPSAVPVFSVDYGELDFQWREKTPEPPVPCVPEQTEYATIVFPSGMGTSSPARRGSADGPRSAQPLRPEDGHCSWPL
cynoPD-1_Fc (cyno), sequence (B0LAJ3 entry or part of it limits assumed): as the sequence (B0LAJ3 entry or part of it limits assumed) above

Fab of Pembrolizumab in IgG1 format
Kd [1]: 470 pM

control IgG (antibody)
MFI (PD-L2-FITC) [2]: 183000 MFI

Fab of Nivolumab in IgG1 format
Kd [3]: 1200 pM

B1: Antibody G (S228P IgG4) (antibody, V domains shown)
VH: QVQLVQSGAEVKKPGSSVRVSCKASGGTLSSYAISWVRQAPGQGLEWMGLIIPMFGAAGYAQRFQGRVTITADESASTAYMELSSLRSEDTAVYYCARAEHSSTGTFDYWGQGTLVTVSS
VL: DIQMTQSPSSVSASVGDRVTITCRASQGISSWLAWYQQKPGKAPKLLISAASSLQSGVPSRFSGSGSGTDFTLTISSLQPEDFATYYCQQANHLPFTFGGGTKVEIKR
IFN-γ secretion fold change vs. IgG control, 0.01 nM IgG (mixed lymphocyte reaction) [4]: 1.17 fold
IFN-γ secretion fold change vs. IgG control, 0.1 nM IgG (mixed lymphocyte reaction) [4]: 1.91 fold
IFN-γ secretion fold change vs. IgG control, 1 nM IgG (mixed lymphocyte reaction) [4]: 2.48 fold
IFN-γ secretion fold change vs. IgG control, 10 nM IgG (mixed lymphocyte reaction) [4]: 2.04 fold
IFN-γ secretion fold change vs. IgG control, 100 nM IgG (mixed lymphocyte reaction) [4]: 2.07 fold
IL-2 secretion fold change vs. IgG control, 0.01 nM IgG (mixed lymphocyte reaction) [5]: 1.36 fold
IL-2 secretion fold change vs. IgG control, 0.1 nM IgG (mixed lymphocyte reaction) [5]: 1.91 fold
IL-2 secretion fold change vs. IgG control, 1 nM IgG (mixed lymphocyte reaction) [5]: 3.12 fold
IL-2 secretion fold change vs. IgG control, 10 nM IgG (mixed lymphocyte reaction) [5]: 2.62 fold
IL-2 secretion fold change vs. IgG control, 100 nM IgG (mixed lymphocyte reaction) [5]: 2.45 fold
EC50 [6]: 1760 pM

B2: Antibody D in IgG1 format (antibody, V domains shown)
VH: QVQLVQSGAEVKKPGSSVKVSCKASGGTFSSYAISWVRQAPGQGLEWMGLIIPMFDTAGYAQKFQGRVAITVDESTSTAYMELSSLRSEDTAVYYCARAEHSSTGTFDYWGQGTLVTVSS
VL: DIQMTQSPSSVSASVGDRVTITCRASQGISSWLAWYQQKPGKAPKLLISAASSLQSGVPSRFSGSGSGTDFTLTISSLQPEDFATYYCQQANHLPFTFGGGTKVEIK
notes: IgG1 format, expressed in yeast; also called Antibody D in an IgG1 format and expressed in yeast
Kd [7]: 12 pM
Kd [8]: 0.9 pM
fold lower KD than nivolumab and pembrolizumab [9]: 6 fold
Kd [10]: 310 pM

B3: Fab of Antibody D in IgG1 format (Fab, V domains shown)
VH: QVQLVQSGAEVKKPGSSVKVSCKASGGTFSSYAISWVRQAPGQGLEWMGLIIPMFDTAGYAQKFQGRVAITVDESTSTAYMELSSLRSEDTAVYYCARAEHSSTGTFDYWGQGTLVTVSS
VL: DIQMTQSPSSVSASVGDRVTITCRASQGISSWLAWYQQKPGKAPKLLISAASSLQSGVPSRFSGSGSGTDFTLTISSLQPEDFATYYCQQANHLPFTFGGGTKVEIK
notes: also called Fab in solution (row Antibody D in IgG1 format)
Kd [3]: 670 pM
Kd [11]: 560 pM
fold lower KD than nivolumab and pembrolizumab [12]: 3 fold

B4: Fab of Antibody G in IgG1 format (Fab, V domains shown)
VH: QVQLVQSGAEVKKPGSSVRVSCKASGGTLSSYAISWVRQAPGQGLEWMGLIIPMFGAAGYAQRFQGRVTITADESASTAYMELSSLRSEDTAVYYCARAEHSSTGTFDYWGQGTLVTVSS
VL: DIQMTQSPSSVSASVGDRVTITCRASQGISSWLAWYQQKPGKAPKLLISAASSLQSGVPSRFSGSGSGTDFTLTISSLQPEDFATYYCQQANHLPFTFGGGTKVEIK
notes: also called Fab in solution (row Antibody G in IgG1 format)
Kd [3]: 590 pM
Kd [11]: 490 pM
fold lower KD than nivolumab and pembrolizumab [12]: 4 fold

B5: Antibody G in IgG1 format (antibody, V domains shown)
VH: QVQLVQSGAEVKKPGSSVRVSCKASGGTLSSYAISWVRQAPGQGLEWMGLIIPMFGAAGYAQRFQGRVTITADESASTAYMELSSLRSEDTAVYYCARAEHSSTGTFDYWGQGTLVTVSS
VL: DIQMTQSPSSVSASVGDRVTITCRASQGISSWLAWYQQKPGKAPKLLISAASSLQSGVPSRFSGSGSGTDFTLTISSLQPEDFATYYCQQANHLPFTFGGGTKVEIK
notes: IgG1 format, expressed in yeast; also called Antibody G in an IgG1 format and expressed in yeast
Kd [13]: 14 pM
fold lower KD than nivolumab and pembrolizumab [9]: 4 fold
Kd [10]: 440 pM
Kd [14]: 1 pM

B6: Antibody D (S228P IgG4) (antibody, V domains shown)
VH: QVQLVQSGAEVKKPGSSVKVSCKASGGTFSSYAISWVRQAPGQGLEWMGLIIPMFDTAGYAQKFQGRVAITVDESTSTAYMELSSLRSEDTAVYYCARAEHSSTGTFDYWGQGTLVTVSS
VL: DIQMTQSPSSVSASVGDRVTITCRASQGISSWLAWYQQKPGKAPKLLISAASSLQSGVPSRFSGSGSGTDFTLTISSLQPEDFATYYCQQANHLPFTFGGGTKVEIKR
IFN-γ secretion fold change vs. IgG control, 0.01 nM IgG (mixed lymphocyte reaction) [4]: 1.32 fold
IFN-γ secretion fold change vs. IgG control, 0.1 nM IgG (mixed lymphocyte reaction) [4]: 1.94 fold
IFN-γ secretion fold change vs. IgG control, 1 nM IgG (mixed lymphocyte reaction) [4]: 2.26 fold
IFN-γ secretion fold change vs. IgG control, 10 nM IgG (mixed lymphocyte reaction) [4]: 1.99 fold
IFN-γ secretion fold change vs. IgG control, 100 nM IgG (mixed lymphocyte reaction) [4]: 1.72 fold
Kd [15]: 103 pM
koff [15]: 3.86e-05 s⁻¹
kon [15]: 377000 M⁻¹ s⁻¹
Kd [16]: 102 pM
koff [16]: 3.6e-05 s⁻¹
kon [16]: 354000 M⁻¹ s⁻¹
IL-2 secretion fold change vs. IgG control, 0.01 nM IgG (mixed lymphocyte reaction) [5]: 1.25 fold
IL-2 secretion fold change vs. IgG control, 0.1 nM IgG (mixed lymphocyte reaction) [5]: 1.64 fold
IL-2 secretion fold change vs. IgG control, 1 nM IgG (mixed lymphocyte reaction) [5]: 2.45 fold
IL-2 secretion fold change vs. IgG control, 10 nM IgG (mixed lymphocyte reaction) [5]: 2.63 fold
IL-2 secretion fold change vs. IgG control, 100 nM IgG (mixed lymphocyte reaction) [5]: 3.08 fold
IC50 [17]: 340 pM
Kd [18]: 118 pM
koff [18]: 4.22e-05 s⁻¹
kon [18]: 358000 M⁻¹ s⁻¹
EC50 [6]: 978 pM
IC50 [19]: 300 pM
Kd [20]: 104 pM
koff [20]: 2.98e-05 s⁻¹
kon [20]: 286000 M⁻¹ s⁻¹
